This is an account of results in article PMC4159317.

The test system of data set [1] is Glu107. Description: other (circular dichroism). To be noted: 25 °C; 50 mM NaCl; none stated; 30 µM protein in 50 mM NaCl titrated with 0.05-0.1 M HCl or NaOH; transition between the more structured form (MSF) and the less structured form (LSF) of the double mutant.
Another data set has as its system Glu104. Description: NMR. To be noted: 25 °C, not stated for the titration samples, folded, more structured form (MSF), signals were lost above pH 6.4 because the population of the structured form is low there.
In a further data set the test system is Glu105. Description: NMR. To be noted: 25 °C, not stated for the titration samples, folded, more structured form (MSF), signals were lost above pH 6.4 because the population of the structured form is low there.
The test system of data set [2] is Glu107. Description: NMR. To be noted: 25 °C, not stated for the titration samples, folded, more structured form (MSF), signals were lost above pH 6.4 because the population of the structured form is low there.
The next data set has as its system Glu28. Description: NMR. To be noted: 25 °C, not stated for the titration samples, folded, more structured form (MSF), signals were lost above pH 6.4 because the population of the structured form is low there.
A further data set concerns Glu38. Description: NMR. To be noted: 25 °C, not stated for the titration samples, folded, more structured form (MSF), signals were lost above pH 6.4 because the population of the structured form is low there.
The next data set has as its system Glu63. Description: NMR. Conditions: 25 °C, not stated for the titration samples, folded, more structured form (MSF), signals were lost above pH 6.4 because the population of the structured form is low there.
A further data set concerns Glu68. Description: NMR. Conditions: 25 °C, not stated for the titration samples, folded, more structured form (MSF), signals were lost above pH 6.4 because the population of the structured form is low there.
The subject of a further data set is Glu83. Description: NMR. To be noted: 25 °C, not stated for the titration samples, folded, more structured form (MSF), signals were lost above pH 6.4 because the population of the structured form is low there.
A further data set concerns Glu87. Description: NMR. Conditions: 25 °C, not stated for the titration samples, folded, more structured form (MSF), signals were lost above pH 6.4 because the population of the structured form is low there.

Marks after values point to notes of the source that are not given here.

Turning to “DraK histidine kinase, extracellular sensor domain (ESD), E83L/E105L double mutant (Streptomyces coelicolor A3(2); E83L;E105L)”, the pKa with Glu107 [1] was 8.1*.

Consider “DraK histidine kinase, extracellular sensor domain (ESD), wild type (Streptomyces coelicolor A3(2))”, for which the pKa in the data set on Glu104 is reported as 4.6; in the data set on Glu105, 5.5; with Glu107 [2], “above 6.4”; in the data set on Glu28 it was 3.9; with Glu38 it was 4.3; with Glu63, 4.5. For the same substance, the pKa with Glu68 came to 4.5; in the data set with Glu83, 5.3; in the data set on Glu87, 3.7.
